# Measured values published in patent US9688764B2, “Methods of treating breast cancer by administering anti-human prolactin receptor (PRLR) antibodies” (REGENERON PHARMACEUTICALS, INC., priority 2013, dated 2017).
# Like-named read-outs stand apart in the source and are kept apart here.
# What was measured:
# PC3/PRLR tumors = experiment: Tumor growth inhibition in xenograft-bearing mice; format: in vivo, SCID mice; conditions: for Average Tumor Growth Inhibition (%): SCID mice; for effect on PC3/PRLR tumor growth: multi-dose, especially at 15 mg/kg
# Excerpt: (§1) Briefly, 20×10^6 MCF7/PRLR cells (ATCC HTB-22 transfected with full length hPRLR as previously described) were implanted subcutaneously into the left mammary fat pad of female NCr nude mice. In other studies, 10×10^6 PC3/PRLR (ATCC CRL-1435 transfected with full length hPRLR as previously described) were implanted subcutaneously into the left flank of male SCID mice. Additionally, 10×10^6 parental T47D (ATCC HTB-133) or […] T47D#11 cells (ATCC HTB-133 serially passaged in vivo as described below) were subcutaneously implanted into the left flank of female CB17 SCID mice. All mice were obtained from Taconic (Hudson, N.Y.). Each bolus of cells was supplemented with a 90-day estrogen release pellet (1.7 mg/pellet; Innovative Research America, Sarasota Fla.). Once tumors had reached an average volume of 250 mm^3, mice were randomized into groups of seven and dosed with anti-PRLR antibody-drug conjugates of the invention or control reagents. Control reagents included PBS vehicle, free methyl-disulfide DM1 (DM1-SMe) and isotype Control 1-DM1.
# (§2) In multi-dose studies, mice were dosed once a week for a total of three weeks with tumor volumes and body weights being monitored twice weekly throughout the study. Test ADCs were dosed at 5 and/or 15 mg/kg in the multi-dose studies. In single-dose studies, mice received a single dose of test ADC, and tumor volumes and body weights were monitored twice weekly throughout the study. Test ADCs were dosed at 1, 2.5, 5, and 15 mg/kg in the single-dose studies. Average tumor size as well as tumor growth inhibition relative to the vehicle treated group were calculated for each group. Tumors were measured with calipers twice a week until the average size of the vehicle group reached 1000 mm^3. Tumor size was calculated using the formula (length×width^2)/2. Tumor growth inhibition was calculated according to the following formula: (1−((Tfinal−Tinitial)/(Cfinal−Cinitial)))*100, where T (treated group) and C (control group) represent the mean tumor mass on the day the vehicle group reached 1000 mm^3. […] Results are summarized in Tables 21-25 (multi-dose) and Table 26 (single dose). (NT=not tested in the particular experiment shown).
# MCF7 (MCF7/ATCC) cells = experiment: Cell viability (cell kill) assay, nuclear counts; format: cell-based
# Procedure, shortened: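 Anti-PRLR ADCs or free DM1-SMe were added at 500 nM to 5 pM final to cells seeded overnight and were incubated 3 days. MCF7 lines were fixed with 4% formaldehyde plus Hoechst 33342, and nuclei were counted by imaging, with digitonin […] background subtracted. Viability was expressed as % of untreated cells, and IC50 was obtained from a 4-parameter fit of a 10-point curve.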
# T47D cells = experiment: Cell viability (cell kill) assay; format: cell-based
# Procedure, shortened: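 T47D cells grown overnight, then exposed 3 days to anti-PRLR ADCs (DM1 via non-cleavable SMCC linker, or other maytansinoid toxins) or free DM1-SMe, 500 nM to 5 pM. Viability by CCK8 OD450, digitonin background subtracted, as % of untreated; IC50 from 10-point four-parameter fit. PRL (15 nM) co-incubation tested separately.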
# MCF7/PRLR tumors = experiment: Tumor growth inhibition in xenograft-bearing mice; format: in vivo, NCr nude mice; conditions: for effect on MCF7/PRLR tumor growth: multi-dose trial 1, 5 and 15 mg/kg
# Excerpt: as §1, §2
# [1] = T47D, Table 12, 3 days, read-out: IC50
molecule,measurement,setting,value
"H1H6765P: anti-PRLR antibody, human IgG1 Fc; HCVR/LCVR SEQ ID NOs 18/26 (antibody, V domains shown, human IgG1 Fc) VH: EVQLVESGGGVVRPGGSLRLSCVGSGFSFDDHGMNWVRQGPGKGLEWVSGFNWNGGSTNYAESVKGRFTISRDNARNSLFLQMNSLRAEDTALYYCVRGRSGWFNDAFDVWGPGTMVTVSS VL: EIVLTQSPGTLSLSPGERATLSCRASQTINSNYLAWYRQKPGQTPRLLIYGTSSRATGIPDRFSGSGSGTDFSLTISRLEPEDFAVFYCQQYAGLPTFGPGTKVDIK",Average Tumor Growth Inhibition (%),"PC3/PRLR tumors; PC3/PRLR tumors TRIAL #2, multi-dose 15 mg/kg, Day 55",1%
H1H6958N2-DM1: anti-PRLR antibody H1H6958N2 conjugated to DM1 through an SMCC linker (conjugate) VH: QVQLVESGGGVVQPGRSLRLSCGASGFTFRNYGMQWVRQGPGKGLEWVTLISFDGNDKYYADSVKGRFTISRDNSKNTLFLQMNSLRTEDTAVYYCARGGDFDYWGQGTLVTVSS VL: DIQMTQSPSSLSASVGDRVTITCRASQDIRKDLGWYQQKPGKAPKRLIYAASSLHSGVPSRFSGSGSGTEFTLTISSLQPEDFATYYCLQHNSYPMYTFGQGTKLEIK,% Kill,"MCF7 (MCF7/ATCC) cells; MCF7/ATCC, Table 18",72%
same,IC50,"MCF7 (MCF7/ATCC) cells; MCF7/ATCC, Table 18",90 nM
same,% Kill,"MCF7 (MCF7/ATCC) cells; MCF7/ATCC, Table 20",70%
same,IC50,"MCF7 (MCF7/ATCC) cells; MCF7/ATCC, Table 20",70 nM
same,% Kill,"MCF7 (MCF7/ATCC) cells; MCF7, Table 12, 3 days",77%
same,IC50,"MCF7 (MCF7/ATCC) cells; MCF7, Table 12, 3 days",100 nM
same,% Kill,"T47D cells; T47D, Table 12, 3 days",71%
same,IC50,T47D cells; [1],1.34 nM
same,% Kill,"T47D cells; T47D, Table 13, + 15 nM PRL",100%
same,IC50,"T47D cells; T47D, Table 13, + 15 nM PRL, read-out: IC50",3 nM
same,% Kill,"T47D cells; T47D, Table 13, without PRL",100%
same,IC50,"T47D cells; T47D, Table 13, without PRL, read-out: IC50",1 nM
same,% Kill,"T47D cells; T47D, Table 19",100%
same,IC50,"T47D cells; T47D, Table 19, read-out: IC50",2 nM
same,effect on MCF7/PRLR tumor growth,MCF7/PRLR tumors,potently inhibited MCF7/PRLR tumor growth
same,effect on tumor volume relative to vehicle control tumors,"MCF7/PRLR tumors; single dose, 1 mg/kg",significant decrease in tumor volume
same,tumor growth inhibition,"MCF7/PRLR tumors; single dose, all doses above 1 mg/kg tested (2.5, 5, 15 mg/kg)",> 100%
same,Average Tumor Growth Inhibition (%),"PC3/PRLR tumors; PC3/PRLR tumors TRIAL #1, multi-dose 5 mg/kg, Day 63",5%
same,effect on PC3/PRLR tumor growth,PC3/PRLR tumors,demonstrated inhibition of tumor growth
"H1H6958N2: human IgG1 Fc form of H2M6958N2; anti-PRLR, receptor blocking; HCVR/LCVR SEQ ID NOs 290/298 (antibody, V domains shown, human IgG1 Fc) VH: QVQLVESGGGVVQPGRSLRLSCGASGFTFRNYGMQWVRQGPGKGLEWVTLISFDGNDKYYADSVKGRFTISRDNSKNTLFLQMNSLRTEDTAVYYCARGGDFDYWGQGTLVTVSS VL: DIQMTQSPSSLSASVGDRVTITCRASQDIRKDLGWYQQKPGKAPKRLIYAASSLHSGVPSRFSGSGSGTEFTLTISSLQPEDFATYYCLQHNSYPMYTFGQGTKLEIK",Average Tumor Growth Inhibition (%),"MCF7/PRLR tumors; MCF7/PRLR tumors, single dose 15 mg/kg, Day 55",1%
H1H6953N-DM1 (conjugate) VH: EVQLLESGGGLVQPGGTLRLSCAASGFTFSAYAMSWVRQAPGKGLEWVSSINVRAGDTYYADSVKGRFTISRDNSKNTLFLLMNSLRAEDTAAYYCAKARYSSNWGFDFWGQGTLVTVSS VL: DIVMTQSPDSLTVSLGARTTINCQSSQTILHSSNNHNYLAWYQQKPGLPPKLLIYWSSTRESGVPDRFSGSGSGTDFTLTISSLQAEDVAIYYCQQYSNTPYTFGQGTKLEIN,% Kill,"MCF7 (MCF7/ATCC) cells; MCF7, Table 12, 3 days",55%
same,IC50,"MCF7 (MCF7/ATCC) cells; MCF7, Table 12, 3 days",100 nM
same,IC50,"MCF7 (MCF7/ATCC) cells; MCF7, Table 16",82 nM
same,IC50,"T47D cells; T47D cells (PRLR 12× above background), 3 days, read-out: IC50, cell viability",1.3 nM
same,% Kill,"T47D cells; T47D, Table 12, 3 days",79%
same,IC50,T47D cells; [1],1.64 nM
same,effect on MCF7/PRLR tumor growth,MCF7/PRLR tumors,potently inhibited MCF7/PRLR tumor growth
same,effect on PC3/PRLR tumor growth,PC3/PRLR tumors,demonstrated inhibition of tumor growth
"H1H6953N: human IgG1 Fc form of H1M6953N; anti-PRLR; HCVR/LCVR SEQ ID NOs 274/282 (antibody, V domains shown, human IgG1 Fc) VH: EVQLLESGGGLVQPGGTLRLSCAASGFTFSAYAMSWVRQAPGKGLEWVSSINVRAGDTYYADSVKGRFTISRDNSKNTLFLLMNSLRAEDTAAYYCAKARYSSNWGFDFWGQGTLVTVSS VL: DIVMTQSPDSLTVSLGARTTINCQSSQTILHSSNNHNYLAWYQQKPGLPPKLLIYWSSTRESGVPDRFSGSGSGTDFTLTISSLQAEDVAIYYCQQYSNTPYTFGQGTKLEIN",Average Tumor Growth Inhibition (%),"MCF7/PRLR tumors; MCF7/PRLR tumors TRIAL #1, multi-dose 15 mg/kg, NCr Nude mice, Day 52",79%
